# Experiments:
# [1] = molecular target: T1, CD3 on Jurkat (CD3+) cells (Homo sapiens (Human), UniProt P07766 23-207; P04234 22-171; P09693 23-182); assay: flow cytometry on Jurkat (CD3+) cells
# T1 construct: also called Jurkat T cells
# [2] = molecular target: T2, PSMA on the surface of LnCap cells (human, UniProt Q04609 1-750); assay: cell-based or functional assay
# [3] = molecular target: T2, PSMA on the surface of LnCap cells; assay: flow cytometry on LnCap (PSMA+) cells
# T2 sequence (Q04609 whole entry): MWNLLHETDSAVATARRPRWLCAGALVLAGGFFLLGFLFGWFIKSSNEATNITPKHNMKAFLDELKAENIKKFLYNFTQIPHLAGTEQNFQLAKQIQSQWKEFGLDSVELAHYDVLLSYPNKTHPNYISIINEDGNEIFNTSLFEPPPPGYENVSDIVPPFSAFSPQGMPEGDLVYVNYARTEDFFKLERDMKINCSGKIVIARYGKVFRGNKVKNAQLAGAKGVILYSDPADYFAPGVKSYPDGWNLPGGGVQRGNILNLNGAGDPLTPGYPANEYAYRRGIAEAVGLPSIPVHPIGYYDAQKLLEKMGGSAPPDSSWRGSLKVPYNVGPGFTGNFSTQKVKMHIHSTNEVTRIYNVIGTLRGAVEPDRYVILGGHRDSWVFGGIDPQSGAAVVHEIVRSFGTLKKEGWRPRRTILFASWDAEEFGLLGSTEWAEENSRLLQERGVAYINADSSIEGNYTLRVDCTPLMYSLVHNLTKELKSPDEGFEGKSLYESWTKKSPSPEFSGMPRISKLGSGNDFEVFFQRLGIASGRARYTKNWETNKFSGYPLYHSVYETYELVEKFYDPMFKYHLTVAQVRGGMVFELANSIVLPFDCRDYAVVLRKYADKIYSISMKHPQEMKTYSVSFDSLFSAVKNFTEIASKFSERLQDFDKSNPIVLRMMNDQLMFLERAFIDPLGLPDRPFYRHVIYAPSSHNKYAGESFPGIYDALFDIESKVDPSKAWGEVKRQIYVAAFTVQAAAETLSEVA
# T1 sequence (P07766 23-207 limits assumed, form in doubt, chain 1 of 3): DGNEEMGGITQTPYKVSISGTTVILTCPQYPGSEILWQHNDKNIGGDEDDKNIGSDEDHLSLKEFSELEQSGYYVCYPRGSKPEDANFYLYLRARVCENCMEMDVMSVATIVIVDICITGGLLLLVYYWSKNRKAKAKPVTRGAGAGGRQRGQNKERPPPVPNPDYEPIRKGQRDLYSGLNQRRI
# T1 sequence (P04234 22-171 limits assumed, form in doubt, chain 2 of 3): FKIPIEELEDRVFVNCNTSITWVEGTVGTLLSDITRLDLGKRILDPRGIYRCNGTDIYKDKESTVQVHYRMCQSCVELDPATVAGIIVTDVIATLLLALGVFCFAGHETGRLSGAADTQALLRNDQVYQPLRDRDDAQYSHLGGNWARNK
# T1 sequence (P09693 23-182 limits assumed, form in doubt, chain 3 of 3): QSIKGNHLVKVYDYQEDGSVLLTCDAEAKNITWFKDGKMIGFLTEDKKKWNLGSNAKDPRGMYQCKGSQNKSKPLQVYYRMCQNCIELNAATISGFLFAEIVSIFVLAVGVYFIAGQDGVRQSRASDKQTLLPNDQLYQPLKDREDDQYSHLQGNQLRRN
binder,measurement,setting,value
"aCD3-aPSMA bispecific antibody (bispecific antibody, also called the bispecific antibody) chain 1: not shown chain 2: EVQLVESGGGLVQPGGSLRLSCAASGFTFNTYAMNWVRQAPGKGLEWVARIRSKYNNYATYYADSVKDRFTISRDDSKNTLYLQMNSLRAEDTAVYYCVRHGNFGNSYVSWFAYWGQGTLVTVSS",EC50,[1],0.51 nM
same,LDH Killing EC50 (pM),[2],184 pM
same,EC50,[3],0.05 nM
